# Results as given in US20190367631A1 (Regeneron, published 2019).
# Read-outs that look alike come from different tables or passages of the source.
# T1: human MSR1 extracellular domain expressed with a N-terminal nonahistidine tag (His9-hMSR1); R&D Systems, Cat … (human, UniProt P21757 77-451)
# T1 construct: extracellular domain; Bought reagent; also called His-hMSR1; 9xHis-hMSR1
# T1 sequence: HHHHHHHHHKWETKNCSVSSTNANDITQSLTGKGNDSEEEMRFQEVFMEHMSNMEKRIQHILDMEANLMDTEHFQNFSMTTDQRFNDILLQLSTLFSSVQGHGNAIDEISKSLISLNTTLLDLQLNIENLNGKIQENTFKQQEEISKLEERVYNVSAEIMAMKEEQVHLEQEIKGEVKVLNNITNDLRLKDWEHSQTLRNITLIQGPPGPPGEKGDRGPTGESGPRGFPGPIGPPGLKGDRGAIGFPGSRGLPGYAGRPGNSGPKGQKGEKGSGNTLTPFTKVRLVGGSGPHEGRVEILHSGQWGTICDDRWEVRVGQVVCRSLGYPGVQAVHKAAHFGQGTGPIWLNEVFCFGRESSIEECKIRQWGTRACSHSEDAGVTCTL
# T2: full length monkey MSR1 on HEK293.mfMSR1 cells (Macaca fascicularis, UniProt A0A2K5UWE2 1-451)
# T2 construct: whole, on cells
# T2 sequence: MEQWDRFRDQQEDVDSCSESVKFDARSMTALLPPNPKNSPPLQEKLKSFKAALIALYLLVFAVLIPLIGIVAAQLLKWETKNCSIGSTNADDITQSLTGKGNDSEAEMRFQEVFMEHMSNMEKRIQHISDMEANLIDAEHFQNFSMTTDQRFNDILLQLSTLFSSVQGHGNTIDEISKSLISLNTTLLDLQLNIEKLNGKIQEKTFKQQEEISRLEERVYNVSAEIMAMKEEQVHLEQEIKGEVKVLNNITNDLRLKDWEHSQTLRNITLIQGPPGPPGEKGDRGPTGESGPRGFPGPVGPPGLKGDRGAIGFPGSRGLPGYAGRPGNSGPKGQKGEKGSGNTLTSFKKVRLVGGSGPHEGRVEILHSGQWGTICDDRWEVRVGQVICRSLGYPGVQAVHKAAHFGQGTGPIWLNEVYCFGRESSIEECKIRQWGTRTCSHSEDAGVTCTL
# T3: full length human MSR1 with a C-terminal Myc tag, on HEK293.Myc.hMSR1 cells (human, UniProt P21757 1-451)
# T3 construct: whole, on cells; stably expressed on engineered HEK293 cells; not shown: C-terminal Myc tag
# T3 sequence (looked up): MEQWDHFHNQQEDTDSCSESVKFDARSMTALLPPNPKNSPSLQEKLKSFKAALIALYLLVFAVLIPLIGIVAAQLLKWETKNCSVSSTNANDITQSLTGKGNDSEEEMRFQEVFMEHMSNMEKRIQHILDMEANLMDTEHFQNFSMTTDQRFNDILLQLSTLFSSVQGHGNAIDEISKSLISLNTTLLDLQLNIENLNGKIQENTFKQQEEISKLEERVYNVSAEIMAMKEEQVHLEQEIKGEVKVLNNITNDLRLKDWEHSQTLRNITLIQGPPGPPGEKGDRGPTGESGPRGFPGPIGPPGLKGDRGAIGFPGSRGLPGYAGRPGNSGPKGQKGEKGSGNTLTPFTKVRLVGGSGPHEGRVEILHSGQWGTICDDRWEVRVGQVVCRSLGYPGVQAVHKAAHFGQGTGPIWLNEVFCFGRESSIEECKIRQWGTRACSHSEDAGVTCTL
# Key:
# [1] = molecular target: T1, human MSR1 extracellular domain …; experiment: SPR Biacore T200, 25 C, antibody captured by anti-human Fc, His9-hMSR1 injected
# Experimental: (§1) All binding studies were performed in 10 mM HEPES, 300 mM NaCl, 3 mM EDTA, and 0.05% v/v Surfactant Tween-20, pH 7.4 (HBS-ET) running buffer at 25° C.
# (§2) The association rate (kₐ) and dissociation rate (kd) were determined by fitting the real-time binding sensorgrams to a 1:1 binding model with mass transport limitation using Scrubber 2.0c curve-fitting software. Binding dissociation equilibrium constant (KD) and dissociative half-life (t½) were calculated from the kinetic rates as:
# [2] = molecular target: T1, human MSR1 extracellular domain …; experiment: as above; remark: listed apart in the source
# Experimental: as §1, §2
# [3] = molecular target: T1, human MSR1 extracellular domain …; experiment: SPR Biacore T200, 25 C, antibody captured by anti-human Fc, His9-hMSR1 injected; no dissociation seen, kd fixed at 1.00E-05
# Experimental: as §1, §2
# [4] = molecular target: T1, human MSR1 extracellular domain …; experiment: as above; remark: listed apart in the source
# Experimental: as §1, §2
# [5] = molecular target: T2, full length monkey MSR1 on …; experiment: ECL cell binding, HEK293.mfMSR1 cells, 11 nM
# Experimental: (§3) All cells were washed once with 1×PBS with Ca²⁺/Mg²⁺ and counted with a Cellometer™ Auto T4 cell counter (Nexcelom Bioscience). Approximately 1.0×10⁴ cells were seeded separately onto 96-well carbon electrode plates [MULTI-ARRAY high bind plate, Meso Scale Diagnostics] and incubated for 1 hour at 37° C. Non-specific binding sites were then blocked by 2% BSA (w/v) in PBS with Ca²⁺/Mg²⁺ for 1 hour at room temperature. THP-1 cells were pre-incubated for 0.5 hours at room temperature in sample dilution buffer with: 1) 1 mg/mL Fc receptor block reagents to block Fc gamma receptors on THP-1 cell surface [whole molecule human IgG (Jackson Immunoresearch, Cat #009-000-003) for wells being tested with anti-MSR1-mFc antibodies or 2) whole molecule mlgG (Jackson Immunoresearch, Cat #015-000-003) for wells being tested with anti-MSR1-hFc antibodies. Antibody binding on HEK293.Myc.hMSR1, HEK293.mfMSR1 and HEK293 cells was tested without Fc receptor block reagents. […] Plates were then washed to remove unbound antibodies an AquaMax2000 plate washer with a cell washing head (MDS Analytical Technologies). […] Plates were washed and developed with Read Buffer (Meso Scale Diagnostics, Cat # R92TD-2) according to manufacturer's recommended procedure and luminescent signals were recorded with a SECTOR Imager 600 (Meso Scale Diagnostics). Luminescence intensity, measured in relative light units (RLU), was recorded to indicate the binding intensity of each antibody at the range of concentrations.
# [6] = molecular target: T3, full length human MSR1 with a …; experiment: ECL cell binding, HEK293.Myc.hMSR1 cells, 11 nM
# Experimental: as §3
# [7] = molecular target: T2, full length monkey MSR1 on …; experiment: ECL cell binding, HEK293.mfMSR1 cells; section head of Table 10
Binder,kon [1],kon [2],Kd [3],koff [3],t½ [3],Kd [4],koff [4],t½ [4],ratio of binding signal (RLU) to isotype control [5],ratio of binding signal (RLU) to isotype control [6],binding result [7]
"H1H21234N-N297Q (antibody, human IgG1, V domains shown, human IgG1 Fc with N297Q (EU); also called H1H21234-N297Q) VH: QVQLQESGPGLVKPSETLSLTCTVTGGSISRNYWSWIRQPPGKGLEWIGYIYYSGSIDYNPSLKSRVTISVDTSKNQFSLKLSSMTAADTAVYYCARDRWNWKYGMDVWGQGTTVIVSS VL: EIVLTQSPGTLSLSPGERATLSCRASQTVRNNYLAWYHQKPGQAPRLLIYGASSRATGIPDRFSGSGSGTDFTLTISRLEPEDFTVYYCHQYGNSPWTFGQGTKMEIKR",220000 M⁻¹ s⁻¹,300000 M⁻¹ s⁻¹,≤ 0.0454 nM,≤ 1e-05 s⁻¹,≥ 19.3 h,≤ 0.0333 nM,≤ 1e-05 s⁻¹,≥ 19.3 h,–,–,–
"H1H21234N-N297Q-LP13 (antibody, human IgG1, V domains shown, steroid linker-payload LP13 clicked to azido-PEG3-amine on Q295 and Q297 (EU) of the heavy chain constant region, antibody-drug conjugate; human IgG1 Fc with N297Q (EU); also called H1H21234N-LP13) VH: QVQLQESGPGLVKPSETLSLTCTVTGGSISRNYWSWIRQPPGKGLEWIGYIYYSGSIDYNPSLKSRVTISVDTSKNQFSLKLSSMTAADTAVYYCARDRWNWKYGMDVWGQGTTVIVSS VL: EIVLTQSPGTLSLSPGERATLSCRASQTVRNNYLAWYHQKPGQAPRLLIYGASSRATGIPDRFSGSGSGTDFTLTISRLEPEDFTVYYCHQYGNSPWTFGQGTKMEIKR",–,400000 M⁻¹ s⁻¹,–,–,–,≤ 0.025 nM,≤ 1e-05 s⁻¹,≥ 19.3 h,–,–,–
"H1xH29282P2 (antibody, V domains shown) VH: EVQLVESGGGLVQPGGSLRLSCAASGFTFSTYAMSWVRQAPGKGLEWVSTISGRSDITYFADSVKGRFTVSRDNSKTTLYLQMNSLRAEDTAVYYCATDDDLPLDYWGQGTLVTVSS VL: not shown",–,–,–,–,–,–,–,–,1 fold,9 fold,no binding (tested: 11 nM)
